Experimental data published in the RNAGym collection of RNA variant scans (doi:10.1073/pnas.2313332121).

B1: TPR t1 (parent)
chain: GACCAAUCUGCCCUCAGAGCUCGAGAACAUCUUCGGAUGCAGAGGAGGCAGGCUUCGGUGGCGCGAUAGCGCCAACGUCCUCAACCUCCAAUGCAUCCCACCACAUGAUGAUGCCUGAAGAGCCUUGGUUUUUUG

Variants of: B1
Test: polymerase ribozyme fitness, log enrichment relative to wild type (log ratio); higher = more active; in vitro selection for triplet polymerase activity
How it was run: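 One round of in vitro selection, in triplicate, was applied to PCR-built, transcribed mutant libraries of each subunit of a heterodimeric triplet polymerase ribozyme. The steps were annealing with a biotinylated primer, partner subunit and triplets, incubation frozen at −7 °C, gel excision of extended constructs, streptavidin-bead capture and RT-PCR. Fitness is the logarithm, base 2, of genotype enrichment over wild-type enrichment from inverse-variance-weighted replicate averages of Illumina-sequenced inputs and outputs, keeping genotypes with ≥10 input reads and ≥1 read per output.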

Going from G42U C88A U92A G120A to G42A U54G A103G U109A G117C, the “polymerase ribozyme fitness (log ratio)” value falls from -1.96 to -6.58.

Compared with G42U A84G, G42A U78C is higher in “polymerase ribozyme fitness (log ratio)” value: -3.57 for the first, -1.87 for the second.

Compared with C40U C114U, G42A A74C G120C is higher in “polymerase ribozyme fitness (log ratio)” value: -2.55 for the first, -2.11 for the second.

First: C40U A46G U78G
Second: A41C G69C A83G
The “polymerase ribozyme fitness (log ratio)” value of the first is higher: -0.597 for the first, -3.72 for the second.

Going from G42A G44A G47U to A41G A46U G63A C82U U87G, the “polymerase ribozyme fitness (log ratio)” value rises from -3.4 to -2.41.

First: A41U U129A
Second: C40U U130G
The “polymerase ribozyme fitness (log ratio)” value of the first is lower: -2.58 for the first, -0.974 for the second.

Compared with G42U U106A, C40U G77A is higher in “polymerase ribozyme fitness (log ratio)” value: -1.56 for the first, -1.17 for the second.

G42A C72U and G42U U54G C76U A111G are within 0.2 log units of each other in “polymerase ribozyme fitness (log ratio)” value: -2.31 for the first, -2.36 for the second.

Going from G42C G57C A66C to C40U C56U A91C C97U C115U, the “polymerase ribozyme fitness (log ratio)” value rises from -4.36 to -3.89.

Going from G42A C49G to G42C G71U U96G, the “polymerase ribozyme fitness (log ratio)” value falls from -1.71 to -3.01.

Compared with C40U A46U C88U, G42A G60U C114G U129C is lower in “polymerase ribozyme fitness (log ratio)” value: -2 for the first, -3.48 for the second.

Compared with G42C C88U U106A A121C U125A, G42A C53U is lower in “polymerase ribozyme fitness (log ratio)” value: -1.81 for the first, -2.41 for the second.

First: G42A C53G
Second: G42A G61C C114U G117C
The “polymerase ribozyme fitness (log ratio)” value of the first is higher: -2.5 for the first, -5.25 for the second.

Compared with G42U U59A G69U, G42U G93C U133A is lower in “polymerase ribozyme fitness (log ratio)” value: -0.413 for the first, -3.57 for the second.

Compared with C40U A43G G61A C97U, C40U C98U is higher in “polymerase ribozyme fitness (log ratio)” value: -3.06 for the first, -2.01 for the second.

First: C40U A43U C49A U55C G61C A84C G110C U131C
Second: C40U G60A G120U
The “polymerase ribozyme fitness (log ratio)” value of the first is lower: -6.76 for the first, -0.0652 for the second.

Compared with G42A G69A, C40U C62U is higher in “polymerase ribozyme fitness (log ratio)” value: -5.77 for the first, -0.882 for the second.

Going from G42A U55C A95C U109A to A41G G52C G58U C62A U78C A111C G127A, the “polymerase ribozyme fitness (log ratio)” value rises from -6.59 to -4.32.

Going from A41U C62G to A41C C123A, the “polymerase ribozyme fitness (log ratio)” value rises from -3.92 to -0.408.

Compared with A41G G45U C56G C124A, A41U G110A is lower in “polymerase ribozyme fitness (log ratio)” value: -0.22 for the first, -2.6 for the second.

First: G42U G63C C76A G77U A90U G117C G127U G128C
Second: C40U A41C
The “polymerase ribozyme fitness (log ratio)” value of the first is lower: -3.83 for the first, -2.44 for the second.

First: A41C U131G
Second: A41G C99A A119G U125A
The “polymerase ribozyme fitness (log ratio)” value of the first is higher: -0.589 for the first, -6.99 for the second.

Going from G42U C53U to G42U C53G, the “polymerase ribozyme fitness (log ratio)” value rises from -1.85 to -1.45.

Going from A41U C49U G69A to A41U G63A U78A A83U, the “polymerase ribozyme fitness (log ratio)” value rises from -6.56 to -4.53.

Going from G42C C49U C79A C102G G120A to C40U C49A C72G A74U C94U G117C, the “polymerase ribozyme fitness (log ratio)” value rises from -7.51 to -6.96.

First: A41U C72G U125G U133G
Second: G42U A50G G57C G61U C80A C82A G120A
The “polymerase ribozyme fitness (log ratio)” value of the first is higher: -2.77 for the first, -4.58 for the second.

Compared with G42C A66U G120A, A41C U78G G122A is higher in “polymerase ribozyme fitness (log ratio)” value: -2.6 for the first, -1.85 for the second.

Going from C40U C99U to C40U C99A, the “polymerase ribozyme fitness (log ratio)” value falls from -3.93 to -4.45.

Going from A41G C73U U125C to G42A G117U, the “polymerase ribozyme fitness (log ratio)” value falls from -2.74 to -3.37.

First: A41C G117U
Second: G42C C49U G128A
The “polymerase ribozyme fitness (log ratio)” value of the first is higher: -2.87 for the first, -5.33 for the second.

Going from G42C C64U to G42C G60A G120U, the “polymerase ribozyme fitness (log ratio)” value falls from -0.982 to -2.21.

Going from G42U G69A to G42A C80U, the “polymerase ribozyme fitness (log ratio)” value rises from -5.35 to -2.64.

Compared with G42A C56U C80U, A41U G44A is higher in “polymerase ribozyme fitness (log ratio)” value: -3.08 for the first, -2.2 for the second.

Going from A41U G113U to A41U G113C, the “polymerase ribozyme fitness (log ratio)” value rises from -3.98 to -3.1.

Going from A41C C82U to A41U A66G G71C U78A, the “polymerase ribozyme fitness (log ratio)” value falls from -1.12 to -5.05.

First: A41C G61U C70G C101A A111C
Second: G42U G135U
The “polymerase ribozyme fitness (log ratio)” value of the first is lower: -5.73 for the first, -1.66 for the second.

Compared with A41G A50U, G42U G48U is lower in “polymerase ribozyme fitness (log ratio)” value: -1.71 for the first, -3.89 for the second.

G42U G71A and A41U C72G A90C are within 0.2 log units of each other in “polymerase ribozyme fitness (log ratio)” value: -2.43 for the first, -2.3 for the second.

Compared with A41U G48C C70U, G42C C62G is lower in “polymerase ribozyme fitness (log ratio)” value: -3.25 for the first, -4.74 for the second.

First: C40U C56A A74C U130C
Second: G42U C72G C94U G120U U131A
The “polymerase ribozyme fitness (log ratio)” value of the first is higher: -1.15 for the first, -2.67 for the second.

Compared with C40U A68U G69A C88U G93A U133A, A41C G42U C104U C114A is higher in “polymerase ribozyme fitness (log ratio)” value: -6.63 for the first, -3.04 for the second.

In the case of C40U G45U G63A, the “polymerase ribozyme fitness (log ratio)” value is reported as -2.6.
